Assay results published in patent publication US20220119472A1 (ORIONIS BIOSCIENCES, published 2022).
Positions count from the first letter of the chain named.

B1: 2CL84 (VHH)
VHH: QVQLQESGGGSVQAGGSLRLSCAASGRTFSDYAMGWFRQAPGKEREFVATISKSGSSTDYADSAKGRFTISRDNAKKTVYLQINSLKTEDTAVYYCAARLSFDNTAFYTSAIRYSDWGQGTQVTVSS
notes: pMECS VHH-HA-His6; TG1 periplasmic extract
B2: 2CL92 (VHH)
VHH: B1 VHH with G16D, D31G, K53T, D59Y, A64V, T78S, T91A, D116Y
notes: as for B1
B3: 2CL43 (VHH)
VHH: QVQLQESGGGTVQPGESLRLSCEVSTDTFSSLAMAWFRQATGKDREFVAAISWSGASTVYGDSVKGRFTMTRDHPKKMVYLQMDNLKPEDTAVYYCAGDLDGRTWHGDDLEYDYWGQGTQVTVSS
notes: as for B1
B4: 2CL82 (VHH)
VHH: B3 VHH with T11L, E16G, D44E
notes: as for B1
B5: 2CL89 (VHH)
VHH: B3 VHH with G42A, A56D
notes: as for B1
B6: 2CL26 (VHH)
VHH: QVQLQESGGGWVQPGDSLRLSCAASGFTFSDYAVGWFRQAPGKEREFVARITRLGNGPYYSASVKGRFTISRDNARDMAYLKMDALTPEDTATYYCAAGRTLASTHDTKTSPQTYDYWGLGTQVTVSS
notes: as for B1
B7: 2CL55 (VHH)
VHH: B6 VHH with F27S, L120Q
notes: as for B1
B8: 1CL48 (VHH)
VHH: QVQLQESGGGLVQPGGSLRLSCVGSGSTFRHHAMAWFRQTAGKEREFVSAINNHGTKTRYSDSVRGRFTISRDNDENMVYLQMDNLRPEDTAVYSCAAGPLVDYLETVPVVYTYWGQGTQVTVSS
notes: as for B1
B9: 1CL21 (VHH)
VHH: B8 VHH with Q13R, A41T, N53D
notes: as for B1
B10: 2CL4 (VHH)
VHH: B8 VHH with L20I, V23A, N53D, P88S, V93N, S95T
notes: as for B1
B11: 2CL8 (VHH)
VHH: B8 VHH with R19K, V23A, M34L, G42E, N53D, E76G
notes: as for B1
B12: 2CL16 (VHH)
VHH: QVQLQESGGGLVQPGGSLRLSCAASGDTFSNYAMGWFRQAPGKAREFVAAISRSAGSTYHVDSVKGRFTISRDNAMNTVYLQMNSLQPEDTAHYYCAARLTFNLIDYYTAETRYTYWGQGTQVTVSS
notes: as for B1
B13: 2CL59 (VHH)
VHH: QVQLQESGGGLVQPGDSLTLSCADSGRTFSNYAMGWFHQAPGKEREFVAAISTSGGSTAYADSVKGRFTISRDNAKNTVYLQMNNLKPEDTAVYYCAARLSFSGSSYYQGPLQYPYWGQGTQVTVSS
notes: as for B1
B14: 1CL82 (VHH)
VHH: QVQLQESGGGSVQAGDSLRLSCVAPGREISSPAMGWFRQAPGKEREFVATINWSSGATLTADSVKGRFTIFKDVEKNTVYLQMNSLRPEDTAVYSCAAGATGVFRIARAYSYWGQGTQVTVSS
notes: as for B1
B15: 2CL21 (VHH)
VHH: QVQLQESGGGLVQAGGSLRLSCAASGRTFTGYAMGWFRQVPGLEREFVARISRSGNSTGYADSVKGRFTVSRDNAKSTMYLQMNSLKTEDTAVYYCAATTSWLPGHNANVYDYWGQGTQVTVSS
notes: as for B1
B16: 2CL30 (VHH)
VHH: B15 VHH with L11S, T30S, G31D, N56D, S77N, M79V
notes: as for B1
B17: 2CL71 (VHH)
VHH: QVQLQESGGGLVQAGGSLRLSCAASGLTFGRYAMGWFRQVPGLEREFIARISRSGDNTGYADSVKGRFTVSRDSAKSTVYLQMNSLKTEDTAVYYCAAGTSWVPGHNANAYDYWGQGTQVTVSS
notes: as for B1
B18: 1CL47 (VHH)
VHH: QVQLQESGGGLVQAGGSRRLSCAASGRTFINYAMGWFRQAPGKEREFVAAISTSGSNTYLADSLKARFTISRDNAKNTVYLQIRSLNPEDTAVYYCAARLSFDDSAYYTSTLRYAYWGQGTQVTVSS
notes: as for B1
B19: 2CL7 (VHH)
VHH: QVQLQESGGGLVQAGDSLRLSCAPSGFTFDGYAIGWFRQAPGKEREKVACINKSDGLTYYEDSVKGRFTISSDTAKNTIHLQMNSLKPDDTAVYYCAAAWECDYAPADFGSWGQGTQVTVSS
notes: as for B1
B20: 2CL18 (VHH)
VHH: B19 VHH with D16G
notes: as for B1
B21: 1CL2 (VHH)
VHH: QVQLQESGGGLVQAGDSLRLSCAASGDTFSMYAMGWFRQAPGKEREFVAAISRSGGSTDYRDSVKGRFTISRDNDLNAGYLQMNSLKPEDTAVYYCALRLTFSTTTAYTGELQYPYWGQGTQVTVSS
notes: as for B1
B22: 2CL58 (VHH)
VHH: B21 VHH with G56S, D59N, A107T
notes: as for B1
B23: 2CL73 (VHH)
VHH: B21 VHH with D27N, D59N, S85N, T106D, E111K
notes: as for B1
B24: 1CL32 (VHH)
VHH: B21 VHH with A33T, D59N
notes: as for B1
B25: 1CL54 (VHH)
VHH: QVQLQESGGGLAQAGASLRLSCAGSGNNFEHYAVAWFRQDAPGKERDFVAAIRDYGDRTRYDDSVKGRFTISRDNAKSMVYLEMNNLKPKDAAVYYCAAGPLNDYLEVTPLVYTYWGQGTQVTVSS
notes: as for B1
B26: 2CL52 (VHH)
VHH: B25 VHH with D40E, D62A, K90E, A92T, A98T
notes: as for B1
B27: 2CL91 (VHH)
VHH: QVQLQESGGGLVQAGDSLRLSCTASERTFSNYAMGWFRLAPGKERKFVAAISTSGGTTDYVDSVKGRFTISRDNAKNTVYLQMNSLKPEDTAVYYCAARLDFSSTDLYTTAPRYPYWGQGTQVTVSS
notes: as for B1
B28: 2CL72 (VHH)
VHH: QVQLQESGGGLVQPGGSLKLSCAASGSTFRHHAMAWFRQTPGKEREFVSAINDHGDRTKYLDSVRGRFTISRDNTDNMVYLQMSDLRPEDTAVYSCAAGPLVDYLETTPLVYTYWGQGTQVTVSS
notes: as for B1
B29: 2CL95 (VHH)
VHH: B28 VHH with A24G, R30K, Q39H, L61S, S71A, S84D, R87L, V93N, S95T
notes: as for B1
B30: 2CL41 (VHH)
VHH: B28 VHH with P14A, K19R, P88T, S95T
notes: as for B1
B31: 2CL78 (VHH)
VHH: B28 VHH with L11V, N74D, P88T, S95T
notes: as for B1
B32: 1CL25 (VHH)
VHH: B28 VHH with K19R, Q82L
notes: as for B1
B33: 2CL88 (VHH)
VHH: B28 VHH with A23T, A24G, S49A, V93N
notes: as for B1
B34: 2CL87 (VHH)
VHH: B28 VHH with K19R, A24G, L61T
notes: as for B1
B35: 2CL90 (VHH)
VHH: B28 VHH with P14A, K19R, E44G
notes: as for B1

The binders below were run against T1, recombinant His6-tagged extracellular domain of human Clec4C (C-type lectin domain family 4, member C) (human, UniProt Q8WTT0 44-213) (assay: ELISA, antigen-coated vs uncoated blocked wells).
T1 construct: Same antigen for immunisation, panning and ELISA; also called His-Clec4C(EC); pMET7-SIgK-His-Clec4C(EC)
T1 sequence: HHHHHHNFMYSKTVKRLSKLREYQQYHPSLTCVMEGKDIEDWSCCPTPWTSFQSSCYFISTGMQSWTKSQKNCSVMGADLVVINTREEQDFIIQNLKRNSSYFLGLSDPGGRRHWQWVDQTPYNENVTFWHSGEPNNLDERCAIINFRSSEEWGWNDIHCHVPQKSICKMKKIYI
Source text: (§1) In total, 190 colonies from rounds 1 and 2 were randomly selected and analyzed by ELISA for the presence of antigen-specific VHH in their periplasmic extracts (ELISA using crude periplasmic extracts from TG1 cultures including soluble VHH). The antigen used for ELISA screening was the same as the one used for immunization, using uncoated blocked wells as negative control.

Compared with B1, B2 is lower in ELISA ratio coated/uncoated: 18.2 for the first, 11.4 for the second.

First: B3
Second: B4
The ELISA ratio coated/uncoated of the first is higher: 12.1 for the first, 9.74 for the second.

Going from B5 to B6, the ELISA ratio coated/uncoated rises from 10.7 to 21.4.

First: B7
Second: B8
The ELISA ratio coated/uncoated of the first is higher: 15 for the first, 7.83 for the second.

Compared with B9, B10 is higher in ELISA ratio coated/uncoated: 11.1 for the first, 31.3 for the second.

Going from B11 to B12, the ELISA ratio coated/uncoated falls from 15.7 to 14.1.

Compared with B13, B14 is higher in ELISA ratio coated/uncoated: 3.98 for the first, 6.23 for the second.

Going from B15 to B16, the ELISA ratio coated/uncoated rises from 4.23 to 8.28.

First: B17
Second: B18
The ELISA ratio coated/uncoated of the first is lower: 5.33 for the first, 9.79 for the second.

First: B19
Second: B20
The ELISA ratio coated/uncoated of the first is higher: 6.57 for the first, 4.74 for the second.

First: B21
Second: B22
The ELISA ratio coated/uncoated of the first is lower: 4.36 for the first, 4.66 for the second.

Compared with B23, B24 is higher in ELISA ratio coated/uncoated: 4.93 for the first, 9.9 for the second.

Compared with B25, B26 is lower in ELISA ratio coated/uncoated: 17 for the first, 7.07 for the second.

Compared with B27, B28 is higher in ELISA ratio coated/uncoated: 5.56 for the first, 21.5 for the second.

Compared with B29, B30 is lower in ELISA ratio coated/uncoated: 23.2 for the first, 20.9 for the second.

First: B31
Second: B32
The ELISA ratio coated/uncoated of the first is higher: 32.7 for the first, 5.81 for the second.

Compared with B33, B34 is lower in ELISA ratio coated/uncoated: 12.2 for the first, 11.5 for the second.

With B35 the ELISA ratio coated/uncoated was 7.54.

The binders below were run against T1, recombinant His6-tagged extracellular … (assay: ELISA, TG1 periplasmic extract on coated antigen).
Source text: as §1

First: B1
Second: B2
The ELISA coated of the first is lower: 3.86 for the first, 3.89 for the second.

Going from B3 to B4, the ELISA coated rises from 2.64 to 2.68.

Going from B5 to B6, the ELISA coated rises from 1.31 to 4.

First: B7
Second: B8
The ELISA coated of the first is lower: 1.7 for the first, 3.85 for the second.

Going from B9 to B10, the ELISA coated falls from 3.79 to 2.8.

First: B11
Second: B12
The ELISA coated of the first is lower: 1.81 for the first, 2.03 for the second.

First: B13
Second: B14
The ELISA coated of the first is higher: 3.76 for the first, 3.01 for the second.

Going from B15 to B16, the ELISA coated falls from 3.89 to 3.79.

B17 and B18 are the same in ELISA coated: 4 for the first, 4 for the second.

Compared with B19, B20 is lower in ELISA coated: 0.664 for the first, 0.491 for the second.

First: B21
Second: B22
The ELISA coated of the first is higher: 3.74 for the first, 2.24 for the second.

Going from B23 to B24, the ELISA coated rises from 2.43 to 3.22.

Going from B25 to B26, the ELISA coated falls from 1.88 to 1.65.

First: B27
Second: B28
The ELISA coated of the first is higher: 4 for the first, 3.63 for the second.

B29 and B30 are the same in ELISA coated: 4 for the first, 4 for the second.

First: B31
Second: B32
The ELISA coated of the first is lower: 3.75 for the first, 4 for the second.

Compared with B33, B34 is lower in ELISA coated: 4 for the first, 1.62 for the second.

With B35 the ELISA coated was 4.
